A short description of this data set: protein stability index of a GFP-peptide fusion (GPS, HEK-293T) (PSI 1-6); higher = more stable. The conditions noted are these: c terminus: a fixed tail appended.

This is an account of results in the supplement of paper PMC10567573.

± gives the standard deviation.
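Also: 24-mer peptide tiles fused after GFP, lentivirally expressed, FACS-sorted into six equal bins by GFP/DsRed ratio, decoded by Illumina sequencing, PSI is the read-weighted mean bin number.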

For the sequence KARSYSYPHCTGISQQDPESDSQG [ZC2HC1C], the protein stability index runs as follows: (treatment: DMSO) 5.28 ± 0.28; (treatment: MLN4924 1 uM, 8 h) 5.25 ± 0.076.
In the same order, the values of KAVEEELDAEDRPAWNSKLQYILA [SLC6A17] are 2.96 ± 0.38 and 3.15 ± 0.24.
As to KCLKFLGSRHPTLVLPLVPELLST [INTS4], the protein stability index was 2.29 ± 0.41 (treatment: DMSO) and 2.23 ± 0.18 (treatment: MLN4924 1 uM, 8 h).
On to KDGKNWNSNQATDIMETSGWKSMI [SPOPL], for which the protein stability index by setting is: (treatment: DMSO) 3.38 ± 0.32; (treatment: MLN4924 1 uM, 8 h) 3.54 ± 0.4.
For KDIAPEKQLLNSAVIAQQRRKPDP [DLC1], the protein stability index is, setting by setting: (treatment: DMSO) 5 ± 0.086; (treatment: MLN4924 1 uM, 8 h) 5.25 ± 0.17.
On to KDVMEKREDSKEAEKSGEATDGAR [CHGA], for which the protein stability index is 5.79 ± 0.11 (treatment: DMSO) and 5.68 ± 0.37 (treatment: MLN4924 1 uM, 8 h).
In the case of KEASRHAIMRSPQMVSAIVRTMQN [CTNNB1], the protein stability index was found to be 3.15 ± 0.32 (treatment: DMSO) and 3.3 ± 0.35 (treatment: MLN4924 1 uM, 8 h).
As for KECVSILPRKESPSVRSSKDGKLL [TNFSF13B], the protein stability index was found to be 4.53 ± 0.11 (treatment: DMSO) and 4.56 ± 0.091 (treatment: MLN4924 1 uM, 8 h).
For KEDLIIPHHHSFYDFIVTKARGKS [FAM50A] the same measures were 3.4 ± 0.095 and 3.73 ± 0.16.
Take KEIESQGSIPGFLISSGMSSHKQG [TAF7L]: the protein stability index by setting is: (treatment: DMSO) 4.42 ± 0.2; (treatment: MLN4924 1 uM, 8 h) 4.11 ± 0.48.
KEVGSHFDDFVTNLIEKSASLDNG [SOAT1] displayed a protein stability index (treatment: DMSO) of 4.19 ± 0.26 and a protein stability index (treatment: MLN4924 1 uM, 8 h) of 4.46 ± 0.37.
Consider KFKGWVSYSTSEQAELSYKKVSEG [DLC1], for which the protein stability index came to 3.52 ± 0.22 (treatment: DMSO) and 3.54 ± 0.39 (treatment: MLN4924 1 uM, 8 h).
For KFYAVLKGTILYLQKDEYRPDKAL [PSD2], the protein stability index amounted to 2.83 ± 0.53 (treatment: DMSO) and 2.58 ± 0.44 (treatment: MLN4924 1 uM, 8 h).
Regarding KIKDARKGPLVPFPNQKSEAAEPP [KMT5A], the protein stability index runs as follows: (treatment: DMSO) 4.95 ± 0.22; (treatment: MLN4924 1 uM, 8 h) 5.11 ± 0.19.
For the sequence KIKDEVHPEVKCVGSVALTALVTV [C8orf76], the protein stability index by setting is: (treatment: DMSO) 2.61 ± 0.26; (treatment: MLN4924 1 uM, 8 h) 2.11 ± 0.85.
For KIYFTDSSSKWQRRDYLLLVMEGT [APMAP] the same measures were 2.68 ± 0.45 and 2.15 ± 0.37.
Consider KKVLNLLKGAFPARLKKVLIVGAP [PTPN9], for which the protein stability index reads like this: (treatment: DMSO) 2.81 ± 0.83; (treatment: MLN4924 1 uM, 8 h) 2.99 ± 0.43.
As to KLDPTLSSCFFIESCGAQVPVEGS, the protein stability index reads like this: (treatment: DMSO) 3.02 ± 0.41; (treatment: MLN4924 1 uM, 8 h) 3.04 ± 0.5.
On to KLKESTVRRRYSDFEWLRSELERE [SNX3], for which the protein stability index is, setting by setting: (treatment: DMSO) 2.99 ± 0.44; (treatment: MLN4924 1 uM, 8 h) 3.13 ± 0.31.
For KLNCDPSRIYKPQTRLKRKQPVRK [DFFB] the same measures were 3.36 ± 0.56 and 3.71 ± 0.63.
As to KLPFCAMGVSSVIHPKNPHAPTIH [CPOX], the protein stability index reads like this: (treatment: DMSO) 2.52 ± 0.2; (treatment: MLN4924 1 uM, 8 h) 2.52 ± 0.31.
In the same order, the values of KLPLPIALRSHLKSFSMANGLNAR [RAB40B] are 2.41 ± 0.23 and 2.46 ± 0.19.
Turning to KLWSFFIYLLRRQIRTVIQYQTVR [CTDNEP1], the protein stability index is, setting by setting: (treatment: DMSO) 2.99 ± 0.3; (treatment: MLN4924 1 uM, 8 h) 2.94 ± 0.37.
In turn, KNEPYLEAACNDVDRWPAPVPGKT [DENND6A] showed a protein stability index (treatment: DMSO) of 4.62 ± 0.23 and a protein stability index (treatment: MLN4924 1 uM, 8 h) of 4.67 ± 0.19.
In the case of KNTFEFLKENNFQPYPLPHVRHMA [CLK3], the protein stability index was 2.54 ± 0.26 (treatment: DMSO) and 2.51 ± 0.12 (treatment: MLN4924 1 uM, 8 h).
For KPASKPAGSSHTPSSQSSSGGGRD [ELOA2], the protein stability index came to 5.47 ± 0.3 (treatment: DMSO) and 5.48 ± 0.19 (treatment: MLN4924 1 uM, 8 h).
In the same order, the values of KPKTTNIELQGVPNDEVHPLLGVK [RBBP5] are 4.65 ± 0.7 and 4.75 ± 0.34.
In the same order, the values of KPPYSYATLICMAMQASKATKITL [FOXJ1] are 2.78 ± 0.57 and 2.8 ± 0.53.
For KRQVTHFQFLSWPDYGVPSSAASL [PTPN9] the same measures were 2.21 ± 0.35 and 2.38 ± 0.18.
KRYSMYLTPKGGVRTSYQPSSPGR [TRIM29]: the protein stability index amounted to 3.15 ± 0.28 (treatment: DMSO) and 3.37 ± 0.41 (treatment: MLN4924 1 uM, 8 h).
For the sequence KSAAMLAVFAVSAVVHEYALAVCL [SOAT1], the protein stability index runs as follows: (treatment: DMSO) 3.22 ± 0.64; (treatment: MLN4924 1 uM, 8 h) 3.32 ± 0.54.
For KSLEWSPWNCILLTKDEAAAHLKL [IQUB] the same measures were 2.41 ± 0.22 and 2.56 ± 0.11.
Consider KSTWPRYSKPGLSMRLLESKKGLS [TCF25], for which the protein stability index was 2.92 ± 0.34 (treatment: DMSO) and 3.12 ± 0.17 (treatment: MLN4924 1 uM, 8 h).
In the same order, the values of KTRTVFSSTQLCVLNDRFQRQKYL [NANOGP8] are 2.5 ± 0.12 and 2.67 ± 0.29.
In the same order, the values of KVIYDFIEKTGGVEAVKNELRRQA [WASL] are 2.13 ± 0.41 and 2.28 ± 0.23.
In the same order, the values of KVNQNQAKRCTVIGGSGFLGQHMV [NSDHL] are 2.22 ± 0.21 and 2.07 ± 0.2.
On to KWTGDFFNKGIYDIHVGLRGVPLL [CLCN6], for which the protein stability index turned out to be 2.86 ± 0.8 (treatment: DMSO) and 2.24 ± 0.44 (treatment: MLN4924 1 uM, 8 h).
